Reference: the supplement of paper PMC9170038

Test system: K4 kissing-loop RNA reporter
Test: apparent KD of K4 kissing-loop reporter; higher = weaker reporter binding
Conditions: Eterna round: R107; input ligand: none
Protocol: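 RNA-MaP round R107: designed RNA switches with theophylline, tryptophan, arginine or FMN aptamers are transcribed on-chip within common flanks. They are titrated with a labelled K4 kissing-loop RNA reporter in RNA-MaP buffer (100 mM Tris pH 7.5, 80 mM KCl, 4 mM MgCl2), without ligand or with the indicated ligand. Median apparent KD per design.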
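Also: bound reporter read as fluorescence of individual clusters on recovered sequencing chips by microscopy, with normalized cluster intensities fitted with a binding model.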

In order of rising “apparent KD of K4 kissing-loop reporter” value:
1. UUUUAAAUGUCUGAUACCAGAGAAAAUAUAUGUAGUGAUGUUACAUACAAAUUUAAUAAGCUCCCUUGGCAGCAGUAUGAAUUUU [AstrosExc-TheB#15]  55.9 nM
2. UGACUUGCCUGAGGAUAUCUAGGAUAUGGAUAAAAUAAAAUAAUAAUGGAGUGAUGUUCCAGAAGGAGAGAAGGCAGGUAAGUCU [KL-XFMN-B16 #DoubleAptamer #SwitchBubble]  96.1 nM
3. UUGGCUGGACGGGAUACCAGCCAAAUCGUGUGCUUGGGAUGUCUAAGAGCCAGUGAUGUUGGCCCUUGGCAGCCCUCCCAGCUUG [Inontixe]  97.1 nM
4. GAUACGAAGCAGUGAUGUUGCUUAUGAGAAGGAGCGCACGAAAGUGCAGGUAGGUCGCUCAGCCAUGUGGACGAAAACGUCCACA [whbob_SS_Arginine_A_sa111]  97.4 nM
5. UGAUAGGACAGAAGGAGCGGUAGUGAUGUUACCAAAAGGGUAAGGUGUCAAAAGACACCCUGCCAGGUAGGUCGCUGUCCUAUCU  99.1 nM
6. AAAAUAAAAGCAGUCAUCGGAGUGAUGUUCCGAGGACCGGUACGGCCGCCACUCGACCAGACAAAGUCUGGAUGGCGAGACUGCA [#SwitchBubble 18 #K4Early]  102 nM
7. CGCAGUGAUGUUGCGAGUAACUACAGGGAAGGAGCGCGGUAGUCCGCAGGUAGGUCGCCCACGCAGUGAUGUUGCGUCAUAGGGU [Exclusion Arg A GF7]  104 nM
8. UGAUUUAACUGAAGGAGCGGCAAUUGAUAAGGAAAUAUAGUGAUGUUAUAUAAGAGAGAGAGCCAGGUAGGUCGCAGAGGGAGGA [ExArgB.H]  110 nM
9. UCCUAGGCUCGAAAGAGCCUAGGAUUAUCUCAGGAUAUCCGGAAACGGAGAAGGGAGAAACUAGUGAUGUUAGGGAUUCCCUCUU  145 nM
10. AGCGAGUGAUGUUCGCUGAUCAUGAGAAGUUAGGAUAUAUACUUGCAUAGAAGGAACUAUUUCAUGACAUUAGAGGCAGUAGUUC [FMN A SS t7]  158 nM
11. UUUAUUAAGACGGCCGCCACUGAUUCAUAGUGAUGUUAUGAUAUAAUCUUAGUGAUAUUUAUAAACAGGACCGGGUCAAUUAUUA [JR_SSTryptoB_Sub026]  192 nM
12. GAUUUAGAGGCGGCCGCCACUAGUGAUGUUAGUGAUGUUUGAUAGGGAAUAUAUCAGCGAGUAGAUAGGACCGGGCCAGAUGGAG [gtggbmullin]  203 nM
13. AUUAUAAAGUCGGCCGCCACUGAGAGUAGUGAUGUUACUCUUUUCCUUUAGAUAUUAUAUUUUAUCAGGACCGGGACAUCAGAUU [JR_ExcTryptoB_Sub020]  208 nM
14. UGACUGGACUGAAGGAGCGCUAAAACUCCUAGUGAUGUUGGGAAAACGAGACAAAGUCUCGAGCAGGUAGGUCGCAGUCUAGUCU [ArgBS 22 #SwitchBubble #StaticStem]  253 nM
15. AUUCUGUUUUUGAUGUUUAUUGUAUAAUGGCAGGAUAUCGUAGAAGCGAGAAGGGCUUUUAUGCGUUAUGAGUGAUGUUUGUAGG [eyeefvmullin]  284 nM
16. CCUGCGGCUUCCGGCGGGCCCGAUUUAUAAAAGGAUAUGUGCGUACACAGAAGGUUUAACGAGGGACCGAGAGUGAUGUUCUCCU [theeternabot_sameState_KL_FMN_A_33]  316 nM
17. GCAAACCUCAGUGAUGUUGAGUAAUCGGAAGGAGCGCGUGAAAACGCAGGUAGGUCGCCGAUACAUGAAGUAUCUUCGUGUUUGC [Arginine A K4 23]  354 nM
18. CCAAUCAGUUACGAUACCAGUCUAAUAUAUUUGAUCAAAACCCUCGCCGAGUGAUGUUCGGACCCUUGGCAGCGUCUGGGACAGG [fcctmullin]  446 nM
19. CAUAAAAGGUGGAAGACGAAUCGGUGUCGCCGAGGACCGGUACGGCCGCCACUCGGUCAUCAAAUCCUUCCCGAGUGAUGUUCGA [theeternabot_sameState_KL_Trp_A_5]  501 nM
20. CUUGGUCUACGAAGGAGCGCCGUGCAGUGAUGUUGCAGUCAGAUCGAGUGAUGUUUCGGGCGGCAGGUAGGUCGCGUGGCCCUUU [Excusion Arginine B GF 26]  613 nM
21. ACAGUACCGGGAAGGAGCGUGAAUGAGAAUGGAUAUAGUGAUGUUAUGUAUACGAACGAAUCGCAGGUAGGUCGCCCGGAUCCCU [SSArgB.aD]  650 nM
22. UGUCAUUGGUCUGAUACCAGCUUGAUCGGAAAACGAUCUGCUGGAGUGAUGUUCCAAUAAAGCCCUUGGCAGCAGACCGAUGACU [TheoBS 7 #SwitchBubble #StaticStem]  991 nM

Same assay, conditions: Eterna round: R107; input ligand: theophylline 20 uM

In order of falling “apparent KD of K4 kissing-loop reporter” value:
1. AAGGUCACUACUACAGUGAUGUUGUGGGAGCAGGAUAUGCAGAAAUGCAGAAGGGCUCGCUCCAGGUGACCGAAUGAAACAUUCA [whbob_SS_FMNA__2th174]  1140 nM
2. CCAAUCAGUUACGAUACCAGUCUAAUAUAUUUGAUCAAAACCCUCGCCGAGUGAUGUUCGGACCCUUGGCAGCGUCUGGGACAGG [fcctmullin]  474 nM
3. GCAGUGAUGUUGCGAAUCGGCCAUGAUACAGAGGAUAUCGUGCCUUCGAGAAGGUUGUAUAGAGGAUACGAUAUUAUAAAUGACG [Same State FMN A GF 1]  436 nM
4. AAUUAAGUGACGGCCGCCACUAGGGUGAUUUUUUUGUUUGAGUGAUGUUUUGAUGUUUGAUUUUGUAGGACCGGGUUAGGUGAUG [juhmullin]  404 nM
5. AGUAGAGCAUCAGAUACCAGACAGAACUGAUGGUAAGGAGUGAUGUUCCUUAAUCAGCUUGUCCCUUGGCAGCUGAUAAUAGUCA [#13 K4 Theophylline B Same State]  359 nM
6. AUUCUGUUUUUGAUGUUUAUUGUAUAAUGGCAGGAUAUCGUAGAAGCGAGAAGGGCUUUUAUGCGUUAUGAGUGAUGUUUGUAGG [eyeefvmullin]  319 nM
7. UGAUAGGACAGAAGGAGCGGGAGUGAUGUUCCCAAAAGUAUAAGGUGUCAAAAGACACCCUCCCAGGUAGGUCGCUGUCCUAUCU  302 nM
8. UGACUGGACUGAAGGAGCGCUAAAACUCCUAGUGAUGUUGGGAAAACGAGACAAAGUCUCGAGCAGGUAGGUCGCAGUCUAGUCU [ArgBS 22 #SwitchBubble #StaticStem]  278 nM
9. CGUUCCUCUGUCGAUACCAGCUUCAGUUGGCGGCCAGUGAUGUUGGUAUUGCCGAUGCCAAGCCCUUGGCAGCGAUAUGAGACCC [Aredi]  265 nM
10. UGGAUUAGGACGGCCGCCACUACGCUGGCAUGAGUGAUGUUCUAAGGCUUGUCAAAGAUCCAGAGUAGGACCGGGUCCAAUGACU [theeternabot_exclusion_KL_Trp_B_38]  261 nM
11. ACGUGCCCAGUGAUGUUGGAUAAAUAUGAAGGAGCGUGCGAAAGCACAGGUAGGUCGCAUAAUAGCACGAGCCACGAAAGUGGCA [#SwitchBubble 7 #K4Early #Sliding]  245 nM
12. AACGCUUGAAUAACAAGCGAAAUAAAUUCGCGAGGACCGGUACGGCCGCCACUCGCUAACUGCGAGUGAUGUUCGAUAAUAAAAU [Mat - Mod of OpenEnded 3 - D15]  234 nM
13. GAUUUAGAGGCGGCCGCCACUAGUGAUGUUAGUGAUGUUUGAUAGGGAAUAUAUCAGCGAGUAGAUAGGACCGGGCCAGAUGGAG [gtggbmullin]  189 nM
14. UCCUGCAAUCUGCCACGAAAGUGGGUUGAUACCAGAGUCGAAAGACUCCCUUGGCAGCGAGUGAUGUUCGUUGCAGGUAAAUAAA [MatMod 8 - Jieux - Exclusion - Theophylline A]  180 nM
15. AUUAUAAAGUCGGCCGCCACUGAGAGUAGUGAUGUUACUCUUUUCCUUUAGAUAUUAUAUUUUAUCAGGACCGGGACAUCAGAUU [JR_ExcTryptoB_Sub020]  180 nM
16. GAUUUAGAGGCGGCCGCCACUAGUGAUGUUAGUGAUGUUUGAUACUGAAUAUAUCUGCGAGUAGAUAGGACCGGGCCAGAUGGAG [plmfmullin]  179 nM
17. AAUAAUCUAGGUGAUACCAGCUCAACAUGAGUGAUGUUCAUGAAAUAAUGUAGAGUUGAGAGCCCUUGGCAGCACCUAGAUAAUA [KL-SSTheoB5]  178 nM
18. GGUAGCAUGGCGGCCGCCACUAUCAGGAGUGAUGUUCCAACGCAGAGCUUCAGCUAGUGUGUAAAUAGGACCGGGCCAUGCUACC  177 nM
19. UUUAUUAAGACGGCCGCCACUGAUUCAUAGUGAUGUUAUGAUAUAAUCUUAGUGAUAUUUAUAAACAGGACCGGGUCAAUUAUUA [JR_SSTryptoB_Sub026]  166 nM
20. GUAUCGCUAGGAGGAUAUUUCAAUUUGACUCUUUGAGUUUUUACGGAGUGAUGUUCCGUUUUACGGAAAGAAGGCCUAGUGAUAC [FMN B 15]  159 nM
21. GUUACGCAUGGAAGGAGCGCACUCCGAUUGGGCGACGCAGUGAUGUUGUGGUUCGUUCGAAUGCAGGUAGGUCGCCAUGUGUAAC [Ex Arginine B K4 21]  141 nM
22. GCUAUGGUAGGAAGGAGCGCUUAUUUAUUUUUACGAGUGAUGUUCGGUAGUAGAUAGUUAAAGCAGGUAGGUCGCCUACUAUAGC [Arginine B K4 16]  135 nM
23. UCCUAGGCUCGAAAGAGCCUAGGAUUAUCUCAGGAUAUCCGGAAACGGAGAAGGGAGAAACUAGUGAUGUUAGGGAUUCCCUCUU  135 nM
24. GAUACGAAGCAGUGAUGUUGCUUAUGAGAAGGAGCGCACGAAAGUGCAGGUAGGUCGCUCAGCCAUGUGGACGAAAACGUCCACA [whbob_SS_Arginine_A_sa111]  126 nM
25. AUCGUUGUCUGAGGAUAUCGUUUUACUGUAGUGAUGUUACAGAAAAUUCACAUUAUAAUUUCUAUUCGAGAAGGCAGACUACGUA [JR_ExcFMNB_Sub015]  114 nM
26. AAUAAUAAUAAAUAAAGAUUGAUGAGCAAACGAGGACCGGUACGGCCGCCACUCGAGUGAUGUUCGAGAAGCUCAUCAAUCAUAA [AK4.8 Exc Tryptophan A]  112 nM
27. AUUUUGGUUUAGAGUGAUGUUCCUUGUGUUCGAGGACCGGUACGGCCGCCACUCGGGUAGAAAAGAAAAGAAAUGUUUGAUUUUU [BDazzled - #10 SS Tryptophan A]  92.8 nM
28. AAAAUAAAAGCAGUCAUCGGAGUGAUGUUCCGAGGACCGGUACGGCCGCCACUCGACCAGACAAAGUCUGGAUGGCGAGACUGCA [#SwitchBubble 18 #K4Early]  91.4 nM
29. UGAUAGGACAGAAGGAGCGGUAGUGAUGUUACCAAAAGGGUAAGGUGUCAAAAGACACCCUGCCAGGUAGGUCGCUGUCCUAUCU  83.4 nM
30. UUUAUGAGGUCGGCCGCCACUGGAUUUAUGUUUGUUUCGUCUGGAUCAAAGUGAUGUUUUGAGUCCAGGACCGGGACAUUUGUUA [whbob_Ex_Tryp_B_w40]  76.8 nM
31. UUUUAAAUGUCUGAUACCAGAGAAAAUAUAUGUAGUGAUGUUACAUACAAAUUUAAUAAGCUCCCUUGGCAGCAGUAUGAAUUUU [AstrosExc-TheB#15]  67 nM
32. AGUGAUGUGGGAAGGAGCGCUACAUCACUUCAGUGAUGUUGAAGUGAUGAAUUAGUGAUGUAGCAGGUAGGUCGCCUAGAUGUUA [KL-XARG-B12]  60.8 nM
